Measurements published in paper doi:10.1101/2025.04.14.648764 (bioRxiv, 2025).

B1: AGT WT (enzyme, human)
chain: MASHKLLVTPPKALLKPLSIPNQLLLGPGPSNLPPRIMAAGGLQMIGSMSKDMYQIMDEIKEGIQYVFQTRNPLTLVISGSGHCALEAALVNVLEPGDSFLVGANGIWGQRAVDIGERIGARVHPMTKDPGGHYTLQEVEEGLAQHKPVLLFLTHGESSTGVLQPLDGFGELCHRYKCLLLVDSVASLGGTPLYMDRQGIDILYSGSQKALNAPPGTSLISFSDKAKKKMYSRKTKPFSFYLDIKWLANFWGCDDQPRMYHHTIPVISLYSLRESLALIAEQGLENSWRQHREAAAYLHGRLQALGLQLFVKDPALRLPTVTTVAVPAGYDWRDIVSYVIDHFDIEIMGGLGPSTGKVLRIGLLGCNATRENVDRVTEALRAALQHCPKKKL
B2: AGT LM-p.G170R p.S81D (enzyme, human)
chain: MASHKLLVTPLKALLKPLSIPNQLLLGPGPSNLPPRIMAAGGLQMIGSMSKDMYQIMDEIKEGIQYVFQTRNPLTLVISGDGHCALEAALVNVLEPGDSFLVGANGIWGQRAVDIGERIGARVHPMTKDPGGHYTLQEVEEGLAQHKPVLLFLTHGESSTGVLQPLDGFRELCHRYKCLLLVDSVASLGGTPLYMDRQGIDILYSGSQKALNAPPGTSLISFSDKAKKKMYSRKTKPFSFYLDIKWLANFWGCDDQPRMYHHTIPVISLYSLRESLALIAEQGLENSWRQHREAAAYLHGRLQALGLQLFVKDPALRLPTVTTVAVPAGYDWRDIVSYVMDHFDIEIMGGLGPSTGKVLRIGLLGCNATRENVDRVTEALRAALQHCPKKKL
B3: AGT LM p.S81D (enzyme, human)
chain: MASHKLLVTPLKALLKPLSIPNQLLLGPGPSNLPPRIMAAGGLQMIGSMSKDMYQIMDEIKEGIQYVFQTRNPLTLVISGDGHCALEAALVNVLEPGDSFLVGANGIWGQRAVDIGERIGARVHPMTKDPGGHYTLQEVEEGLAQHKPVLLFLTHGESSTGVLQPLDGFGELCHRYKCLLLVDSVASLGGTPLYMDRQGIDILYSGSQKALNAPPGTSLISFSDKAKKKMYSRKTKPFSFYLDIKWLANFWGCDDQPRMYHHTIPVISLYSLRESLALIAEQGLENSWRQHREAAAYLHGRLQALGLQLFVKDPALRLPTVTTVAVPAGYDWRDIVSYVMDHFDIEIMGGLGPSTGKVLRIGLLGCNATRENVDRVTEALRAALQHCPKKKL
B4: AGT LM-p.I244T (enzyme, human)
chain: MASHKLLVTPLKALLKPLSIPNQLLLGPGPSNLPPRIMAAGGLQMIGSMSKDMYQIMDEIKEGIQYVFQTRNPLTLVISGSGHCALEAALVNVLEPGDSFLVGANGIWGQRAVDIGERIGARVHPMTKDPGGHYTLQEVEEGLAQHKPVLLFLTHGESSTGVLQPLDGFGELCHRYKCLLLVDSVASLGGTPLYMDRQGIDILYSGSQKALNAPPGTSLISFSDKAKKKMYSRKTKPFSFYLDTKWLANFWGCDDQPRMYHHTIPVISLYSLRESLALIAEQGLENSWRQHREAAAYLHGRLQALGLQLFVKDPALRLPTVTTVAVPAGYDWRDIVSYVMDHFDIEIMGGLGPSTGKVLRIGLLGCNATRENVDRVTEALRAALQHCPKKKL
B5: AGT WT p.S81D (enzyme, human)
chain: MASHKLLVTPPKALLKPLSIPNQLLLGPGPSNLPPRIMAAGGLQMIGSMSKDMYQIMDEIKEGIQYVFQTRNPLTLVISGDGHCALEAALVNVLEPGDSFLVGANGIWGQRAVDIGERIGARVHPMTKDPGGHYTLQEVEEGLAQHKPVLLFLTHGESSTGVLQPLDGFGELCHRYKCLLLVDSVASLGGTPLYMDRQGIDILYSGSQKALNAPPGTSLISFSDKAKKKMYSRKTKPFSFYLDIKWLANFWGCDDQPRMYHHTIPVISLYSLRESLALIAEQGLENSWRQHREAAAYLHGRLQALGLQLFVKDPALRLPTVTTVAVPAGYDWRDIVSYVIDHFDIEIMGGLGPSTGKVLRIGLLGCNATRENVDRVTEALRAALQHCPKKKL
B6: AGT LM-p.G170R (enzyme, human)
chain: MASHKLLVTPLKALLKPLSIPNQLLLGPGPSNLPPRIMAAGGLQMIGSMSKDMYQIMDEIKEGIQYVFQTRNPLTLVISGSGHCALEAALVNVLEPGDSFLVGANGIWGQRAVDIGERIGARVHPMTKDPGGHYTLQEVEEGLAQHKPVLLFLTHGESSTGVLQPLDGFRELCHRYKCLLLVDSVASLGGTPLYMDRQGIDILYSGSQKALNAPPGTSLISFSDKAKKKMYSRKTKPFSFYLDIKWLANFWGCDDQPRMYHHTIPVISLYSLRESLALIAEQGLENSWRQHREAAAYLHGRLQALGLQLFVKDPALRLPTVTTVAVPAGYDWRDIVSYVMDHFDIEIMGGLGPSTGKVLRIGLLGCNATRENVDRVTEALRAALQHCPKKKL
B7: AGT WT p.S81A (enzyme, human)
chain: MASHKLLVTPPKALLKPLSIPNQLLLGPGPSNLPPRIMAAGGLQMIGSMSKDMYQIMDEIKEGIQYVFQTRNPLTLVISGAGHCALEAALVNVLEPGDSFLVGANGIWGQRAVDIGERIGARVHPMTKDPGGHYTLQEVEEGLAQHKPVLLFLTHGESSTGVLQPLDGFGELCHRYKCLLLVDSVASLGGTPLYMDRQGIDILYSGSQKALNAPPGTSLISFSDKAKKKMYSRKTKPFSFYLDIKWLANFWGCDDQPRMYHHTIPVISLYSLRESLALIAEQGLENSWRQHREAAAYLHGRLQALGLQLFVKDPALRLPTVTTVAVPAGYDWRDIVSYVIDHFDIEIMGGLGPSTGKVLRIGLLGCNATRENVDRVTEALRAALQHCPKKKL
B8: AGT LM-p.I244T p.S81D (enzyme, human)
chain: MASHKLLVTPLKALLKPLSIPNQLLLGPGPSNLPPRIMAAGGLQMIGSMSKDMYQIMDEIKEGIQYVFQTRNPLTLVISGDGHCALEAALVNVLEPGDSFLVGANGIWGQRAVDIGERIGARVHPMTKDPGGHYTLQEVEEGLAQHKPVLLFLTHGESSTGVLQPLDGFGELCHRYKCLLLVDSVASLGGTPLYMDRQGIDILYSGSQKALNAPPGTSLISFSDKAKKKMYSRKTKPFSFYLDTKWLANFWGCDDQPRMYHHTIPVISLYSLRESLALIAEQGLENSWRQHREAAAYLHGRLQALGLQLFVKDPALRLPTVTTVAVPAGYDWRDIVSYVMDHFDIEIMGGLGPSTGKVLRIGLLGCNATRENVDRVTEALRAALQHCPKKKL
B9: AGT LM p.S81A (enzyme, human)
chain: MASHKLLVTPLKALLKPLSIPNQLLLGPGPSNLPPRIMAAGGLQMIGSMSKDMYQIMDEIKEGIQYVFQTRNPLTLVISGAGHCALEAALVNVLEPGDSFLVGANGIWGQRAVDIGERIGARVHPMTKDPGGHYTLQEVEEGLAQHKPVLLFLTHGESSTGVLQPLDGFGELCHRYKCLLLVDSVASLGGTPLYMDRQGIDILYSGSQKALNAPPGTSLISFSDKAKKKMYSRKTKPFSFYLDIKWLANFWGCDDQPRMYHHTIPVISLYSLRESLALIAEQGLENSWRQHREAAAYLHGRLQALGLQLFVKDPALRLPTVTTVAVPAGYDWRDIVSYVMDHFDIEIMGGLGPSTGKVLRIGLLGCNATRENVDRVTEALRAALQHCPKKKL
B10: AGT LM-p.I244T p.S81A (enzyme, human)
chain: MASHKLLVTPLKALLKPLSIPNQLLLGPGPSNLPPRIMAAGGLQMIGSMSKDMYQIMDEIKEGIQYVFQTRNPLTLVISGAGHCALEAALVNVLEPGDSFLVGANGIWGQRAVDIGERIGARVHPMTKDPGGHYTLQEVEEGLAQHKPVLLFLTHGESSTGVLQPLDGFGELCHRYKCLLLVDSVASLGGTPLYMDRQGIDILYSGSQKALNAPPGTSLISFSDKAKKKMYSRKTKPFSFYLDTKWLANFWGCDDQPRMYHHTIPVISLYSLRESLALIAEQGLENSWRQHREAAAYLHGRLQALGLQLFVKDPALRLPTVTTVAVPAGYDWRDIVSYVMDHFDIEIMGGLGPSTGKVLRIGLLGCNATRENVDRVTEALRAALQHCPKKKL
B11: AGT LM (enzyme, human)
chain: MASHKLLVTPLKALLKPLSIPNQLLLGPGPSNLPPRIMAAGGLQMIGSMSKDMYQIMDEIKEGIQYVFQTRNPLTLVISGSGHCALEAALVNVLEPGDSFLVGANGIWGQRAVDIGERIGARVHPMTKDPGGHYTLQEVEEGLAQHKPVLLFLTHGESSTGVLQPLDGFGELCHRYKCLLLVDSVASLGGTPLYMDRQGIDILYSGSQKALNAPPGTSLISFSDKAKKKMYSRKTKPFSFYLDIKWLANFWGCDDQPRMYHHTIPVISLYSLRESLALIAEQGLENSWRQHREAAAYLHGRLQALGLQLFVKDPALRLPTVTTVAVPAGYDWRDIVSYVMDHFDIEIMGGLGPSTGKVLRIGLLGCNATRENVDRVTEALRAALQHCPKKKL
B12: AGT LM-p.G170R p.S81A (enzyme, human)
chain: MASHKLLVTPLKALLKPLSIPNQLLLGPGPSNLPPRIMAAGGLQMIGSMSKDMYQIMDEIKEGIQYVFQTRNPLTLVISGAGHCALEAALVNVLEPGDSFLVGANGIWGQRAVDIGERIGARVHPMTKDPGGHYTLQEVEEGLAQHKPVLLFLTHGESSTGVLQPLDGFRELCHRYKCLLLVDSVASLGGTPLYMDRQGIDILYSGSQKALNAPPGTSLISFSDKAKKKMYSRKTKPFSFYLDIKWLANFWGCDDQPRMYHHTIPVISLYSLRESLALIAEQGLENSWRQHREAAAYLHGRLQALGLQLFVKDPALRLPTVTTVAVPAGYDWRDIVSYVMDHFDIEIMGGLGPSTGKVLRIGLLGCNATRENVDRVTEALRAALQHCPKKKL

Molecular target: the molecule itself
Assay: dynamic light scattering

Stoichiometry N, 2:
B1, B2, B3, B4, B5, B6, B7, B8, B9, B10, B11, B12
